Experimental data published in patent US20220204613A1 (D 10 THERAPEUTICS, published 2022).

molecular target: T1, human CD47 protein (human, UniProt Q08722 19-139, limits assumed); assay: SPR Biacore, supernatant antibody Fc-captured, human CD47 analyte 5 nM
T1 construct: also called human CD47 antigen
Protocol: Production and affinity ranking of humanized antibodies. The designed plasmids of heavy chain and light chain were sent for 3 mL transfection following GenScript's SOP. For affinity ranking, Antibodies were captured on the sensor chip through Fc capture method. Human CD47 protein was used as the analyte. The surface was regenerated before the injection of another antibody. The process was repeated until all antibodies were analyzed. The off-rates of antibodies were obtained from fitting the experimental data locally to 1:1 interaction model using the Biacore® T200/8K evaluation software. The antibodies were ranked by their dissociation rate constants (off-rates, kd).

T1 sequence (Q08722 19-139 limits assumed): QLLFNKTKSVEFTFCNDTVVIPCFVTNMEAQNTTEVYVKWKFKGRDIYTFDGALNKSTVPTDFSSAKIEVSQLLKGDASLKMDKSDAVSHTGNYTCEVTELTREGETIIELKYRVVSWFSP

Kd | koff | kon | Binder
0.638 nM | 0.00378 s⁻¹ | 5.93e+06 M⁻¹ s⁻¹ | VH3+VL2 (antibody, human IgG4 S228P, kappa, V domains shown, Humanized IgG, hIgG4 CH (S228P) and human kappa CL; leader residues 1-19 of each entry left out; Tested from supernatant; also called U0959FD090-VH3 + U0959FD090-VL2) VH: QVQLVQSGAEVKKPGASVKVSCKASGYTFTSSVIHWVKQAPGQGLEWLGYINPYSDGTKFNEKCKIRVTLTSDTSISTAYMELSRLRSDDTAVYYCARGLIGTRYDSWFAYWGQGTLVTVSS VL: DIQMTQSPSSLSASVGDRVTITCRTSQDINNYLNWYQQKPGKAVKLLIYYTSRLHSGVPSRFSGSGSGTDFTFTISSLQPEDIATYFCQQGNTLPYTFGGGTKVEIKR
0.591 nM | 0.00287 s⁻¹ | 4.85e+06 M⁻¹ s⁻¹ | VH4+VL3 (antibody, human IgG4 S228P, kappa, V domains shown, Humanized IgG, hIgG4 CH (S228P) and human kappa CL; leader residues 1-19 of each entry left out; Tested from supernatant; also called U0959FD090-VH4 + U0959FD090-VL3) VH: QVQLVQSGAEVKKPGASVKVSCKASGYTFTSSVIHWVKQAPGQGLEWLGYINPYSDGTKFNEKCKIRATMTSDKSISTAYMELSRLRSDDTAVYYCARGLIGTRYDSWFAYWGQGTLVTVSS VL: DIQMTQSPSSLSASVGDRVTITCRTSQDINNYLNWYQQKPGKAVKLLIYYTSRLHSGVPSRFSGSGSGTDYTFTISSLQPEDIATYFCQQGNTLPYTFGGGTKVEIKR
0.368 nM | 0.00159 s⁻¹ | 4.32e+06 M⁻¹ s⁻¹ | VH1+VL2 (antibody, human IgG4 S228P, kappa, V domains shown, Humanized IgG, hIgG4 CH (S228P) and human kappa CL; leader residues 1-19 of each entry left out; Tested from supernatant; also called U0959FD090-VH1 + U0959FD090-VL2) VH: QVQLVQSGAEVKKPGASVKVSCKASGYTFTSSVIHWVRQAPGQGLEWMGYINPYSDGTKFNEKCKIRVTMTRDTSISTAYMELSRLRSDDTAVYYCARGLIGTRYDSWFAYWGQGTLVTVSS VL: DIQMTQSPSSLSASVGDRVTITCRTSQDINNYLNWYQQKPGKAVKLLIYYTSRLHSGVPSRFSGSGSGTDFTFTISSLQPEDIATYFCQQGNTLPYTFGGGTKVEIKR
0.266 nM | 0.00128 s⁻¹ | 4.8e+06 M⁻¹ s⁻¹ | VH1+VL4 (antibody, human IgG4 S228P, kappa, V domains shown, Humanized IgG, hIgG4 CH (S228P) and human kappa CL; leader residues 1-19 of each entry left out; Tested from supernatant; also called U0959FD090-VH1 + U0959FD090-VL4) VH: QVQLVQSGAEVKKPGASVKVSCKASGYTFTSSVIHWVRQAPGQGLEWMGYINPYSDGTKFNEKCKIRVTMTRDTSISTAYMELSRLRSDDTAVYYCARGLIGTRYDSWFAYWGQGTLVTVSS VL: DIQMTQSPSSLSASVGDRVTISCRTSQDINNYLNWYQQKPGKTVKLLIYYTSRLHSGVPSRFSGSGSGTDYTFTISSLQPEDIATYFCQQGNTLPYTFGGGTKVEIKR
1 nM | 0.00648 s⁻¹ | 6.47e+06 M⁻¹ s⁻¹ | VH2+VL1 (antibody, human IgG4 S228P, kappa, V domains shown, Humanized IgG, hIgG4 CH (S228P) and human kappa CL; leader residues 1-19 of each entry left out; Tested from supernatant; also called U0959FD090-VH2 + U0959FD090-VL1) VH: QVQLVQSGAEVKKPGASVKVSCKASGYTFTSSVIHWVRQAPGQGLEWLGYINPYSDGTKFNEKCKIRATMTSDTSISTAYMELSRLRSDDTAVYYCARGLIGTRYDSWFAYWGQGTLVTVSS VL: DIQMTQSPSSLSASVGDRVTITCRTSQDINNYLNWYQQKPGKAPKLLIYYTSRLHSGVPSRFSGSGSGTDFTFTISSLQPEDIATYYCQQGNTLPYTFGGGTKVEIKR
0.602 nM | 0.00312 s⁻¹ | 5.18e+06 M⁻¹ s⁻¹ | VH3+VL3 (antibody, human IgG4 S228P, kappa, V domains shown, Humanized IgG, hIgG4 CH (S228P) and human kappa CL; leader residues 1-19 of each entry left out; Tested from supernatant; also called U0959FD090-VH3 + U0959FD090-VL3) VH: QVQLVQSGAEVKKPGASVKVSCKASGYTFTSSVIHWVKQAPGQGLEWLGYINPYSDGTKFNEKCKIRVTLTSDTSISTAYMELSRLRSDDTAVYYCARGLIGTRYDSWFAYWGQGTLVTVSS VL: DIQMTQSPSSLSASVGDRVTITCRTSQDINNYLNWYQQKPGKAVKLLIYYTSRLHSGVPSRFSGSGSGTDYTFTISSLQPEDIATYFCQQGNTLPYTFGGGTKVEIKR
0.597 nM | 0.00348 s⁻¹ | 5.83e+06 M⁻¹ s⁻¹ | VH2+VL3 (antibody, human IgG4 S228P, kappa, V domains shown, Humanized IgG, hIgG4 CH (S228P) and human kappa CL; leader residues 1-19 of each entry left out; Tested from supernatant; also called U0959FD090-VH2 + U0959FD090-VL3) VH: QVQLVQSGAEVKKPGASVKVSCKASGYTFTSSVIHWVRQAPGQGLEWLGYINPYSDGTKFNEKCKIRATMTSDTSISTAYMELSRLRSDDTAVYYCARGLIGTRYDSWFAYWGQGTLVTVSS VL: DIQMTQSPSSLSASVGDRVTITCRTSQDINNYLNWYQQKPGKAVKLLIYYTSRLHSGVPSRFSGSGSGTDYTFTISSLQPEDIATYFCQQGNTLPYTFGGGTKVEIKR
0.292 nM | 0.00215 s⁻¹ | 7.36e+06 M⁻¹ s⁻¹ | chimeric-VH-PTM1+VL-1 (antibody, human IgG4 S228P, V domains shown, Heavy chain with hIgG4 CH (S228P); Light chain: mouse VL-1 with a human constant region; Tested from supernatant; also called U0959FD090-chimeric-VH-PTM1 with 32G8H6 VL-1) VH: EVQLQQSGPELVKPGASVKLSCKASGYTFTSSVIHWVKQKPGQGLEWLGYINPYSEGTKFNEKSKIKATLTSDKSSSTAYMELSSLTSEDSAVYYCARGLIGTRYDSWFAYWGQGTLVTVSA VL: DIQMTQNGSSLSASLGDRVTISCRTSQDINNYLNWYQQKQDGTVKLLIYYTSRLHSGVPSRFSGSGSGTDYSLTIRNLEQEDIATYFCQQGNTLPYTFGGGTKLEIK
0.488 nM | 0.00442 s⁻¹ | 9.06e+06 M⁻¹ s⁻¹ | chimeric-VH-PTM2+VL-1 (antibody, human IgG4 S228P, V domains shown, Heavy chain with hIgG4 CH (S228P); Light chain: mouse VL-1 with a human constant region; Tested from supernatant; also called U0959FD090-chimeric-VH-PTM2 with 32G8H6 VL-1) VH: EVQLQQSGPELVKPGASVKLSCKASGYTFTSSVIHWVKQKPGQGLEWLGYINPYSDATKFNEKSKIKATLTSDKSSSTAYMELSSLTSEDSAVYYCARGLIGTRYDSWFAYWGQGTLVTVSA VL: DIQMTQNGSSLSASLGDRVTISCRTSQDINNYLNWYQQKQDGTVKLLIYYTSRLHSGVPSRFSGSGSGTDYSLTIRNLEQEDIATYFCQQGNTLPYTFGGGTKLEIK
